T1: full length human DLL3 with N-terminal HA tag, expressed on CHO cells (human, UniProt Q9NYJ7 27-618)
T1 construct: also called Human DLL3 complete ECD
T1 sequence: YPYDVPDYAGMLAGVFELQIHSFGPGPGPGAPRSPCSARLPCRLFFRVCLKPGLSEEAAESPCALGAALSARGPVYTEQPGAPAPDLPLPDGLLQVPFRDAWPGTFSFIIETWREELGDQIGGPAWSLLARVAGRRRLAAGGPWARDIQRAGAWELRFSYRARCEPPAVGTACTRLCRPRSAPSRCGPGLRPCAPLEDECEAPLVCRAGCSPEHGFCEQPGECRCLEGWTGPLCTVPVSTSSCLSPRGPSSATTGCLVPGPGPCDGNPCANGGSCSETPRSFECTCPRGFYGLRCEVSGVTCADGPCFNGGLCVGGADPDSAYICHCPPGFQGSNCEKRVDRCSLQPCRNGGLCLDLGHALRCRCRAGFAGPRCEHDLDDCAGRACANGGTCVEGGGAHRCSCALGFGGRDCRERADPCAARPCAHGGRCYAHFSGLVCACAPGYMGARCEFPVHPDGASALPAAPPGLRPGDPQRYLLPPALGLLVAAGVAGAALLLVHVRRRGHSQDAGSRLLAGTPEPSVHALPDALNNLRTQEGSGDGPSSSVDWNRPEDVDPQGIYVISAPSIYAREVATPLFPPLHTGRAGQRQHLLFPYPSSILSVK

T2: Flag tagged recombinant DLL3 (Adipogen) (Homo sapiens (Human), UniProt Q9NYJ7 27-492)
T2 construct: Bought reagent; also called Flag-DLL3
T2 sequence: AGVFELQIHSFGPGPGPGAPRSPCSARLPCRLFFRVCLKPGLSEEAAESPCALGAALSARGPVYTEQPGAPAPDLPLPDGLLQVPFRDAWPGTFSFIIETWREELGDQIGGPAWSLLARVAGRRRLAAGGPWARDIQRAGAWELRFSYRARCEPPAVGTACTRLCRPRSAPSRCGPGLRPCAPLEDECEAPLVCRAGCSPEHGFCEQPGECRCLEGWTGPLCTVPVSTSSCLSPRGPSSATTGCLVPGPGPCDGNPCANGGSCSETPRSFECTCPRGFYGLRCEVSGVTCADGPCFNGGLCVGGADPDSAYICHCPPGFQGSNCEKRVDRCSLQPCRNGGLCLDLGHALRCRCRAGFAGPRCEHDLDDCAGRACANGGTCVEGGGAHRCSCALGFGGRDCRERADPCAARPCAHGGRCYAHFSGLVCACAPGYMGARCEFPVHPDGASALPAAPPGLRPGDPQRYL


Tests used:
[1] = biological target: T1, full length human DLL3 with N-terminal …; assay: flow cytometry on CHO cells with full length and truncated human DLL3; column Binds to DLL3 Domain
Experimental: The samples were analyzed by flow cytometry. […] Signals from the PE channel are shown on the x-axis and counts are shown on the y-axis.

[2] = biological target: T2, Flag tagged recombinant DLL3 (Adipogen); assay: flow cytometry, primary T cells with the CAR, Flag tagged recombinant DLL3, PE anti-Flag
[3] = biological target: T2, Flag tagged recombinant DLL3 (Adipogen); assay: flow cytometry, primary T cells with the CAR, 1 ug/ml Flag tagged recombinant DLL3, PE anti-Flag
Experimental: (§1) To determine the percentage of T cells that were successfully transduced with DLL3 CAR, T cells were first incubated with 1 ug/ml Flag tagged recombinant DLL3 (Adipogen) in PBS+1% BSA for 20 minutes at 4 C.

[4] = biological target: T2, Flag tagged recombinant DLL3 (Adipogen); assay: flow cytometry, percent of T cells that recognise recombinant DLL3, Donor 116
Experimental: as §1

[5] = biological target: T2, Flag tagged recombinant DLL3 (Adipogen); assay: flow cytometry, percent of T cells that recognise recombinant DLL3, Donor 419
Experimental: as §1

binding result [1]	Rec-DLL3+ gate, percent of live CD3+ cells [2] [%]	Binder	further results
binds	–	anti-DLL3 antibody 11H7 (antibody, V domains shown) VH: QVQLQQWGAGLLKPSETLSLTCAVYGGSFSAYYWNWIRQPPGKGLEWIGEINHSGSTNYNPSLKSRVTISVDTSKNQFSLNLTSLTAADTAVYYCARGLDSSGWYPFDYWGQGTLVTVSS VL: DIQMTQSPSSVSASVGDRVTITCRASQGISSWLAWYQQKPGKAPKLLIYAASSLQSGVPSRFSGSGSGTDFTLTISSLQPEDFATYYCQQADSFPFTFGPGTKVDIK	–
–	51.9	4H8 RSR (other, member of group m45; also called 4H8-RSR anti-DLL3 CAR with safety switch, on primary T cells) CAR: GGGGSCPYSNPSLCGGGGSQVQLQQSGPGLVKPSQTLSLTCAISGDSVSSNSATWNWIRQSPSRGLEWLGRTYYRSKWYDDYAVSVKSRITINPDTSKNHLSLHLNSVTPEDTAVYYCAGGGLVGAPDGFDVWGQGTMVTVSSGGGGSGGGGSGGGGSGGGGSQSVLTQPPSASGTPGQRVTISCSGSSSNIGSDPVNWYQQLPGTAPKLLIYSNNQRPSGVPDRFSGSKSGTSASLAISGLQSEDEADYYCSAWDDSLNGYVFGTGTKVTVLGGGGSCPYSNPSLCGGGGSTTTPAPRPPTPAPTIASQPLSLRPEACRPAAGGAVHTRGLDFACDIYIWAPLAGTCGVLLLSLVITKRGRKKLLYIFKQPFMRPVQTTQEEDGCSCRFPEEEEGGCELRVKFSRSADAPAYQQGQNQLYNELNLGRREEYDVLDKRRGRDPEMGGKPRRKNPQEGLYNELQKDKMAEAYSEIGMKGERRRGKGHDGLYQGLSTATKDTYDALHMQALPPR	–
–	42.7	10G1-K RSR (other, member of group m46; also called 10G1-K RSR anti-DLL3 CAR with safety switch, on primary T cells) CAR: GGGGSCPYSNPSLCGGGGSEVQLLESGGGLVQPGGSLRLSCAASGFTFSSYAMNWVRQAPGKGLEWVSTISGSGGSTYYADSVKGRFTISRDNSKNTLYLQMNSLRAEDTAVFYCAIDPEYYDILTGGDYWGQGTLVTVSSGGGGSGGGGSGGGGGSGGGGSDIQMTQSPSAMSASVGDRVTITCRASQGISNYLAWFQQKPGKVPKRLIYAASSLQSGVPSRFSGSGSGTEFTLTISSLQPEDFATYFCLQHDSFPLTFGGGTKVEIKGGGGSCPYSNPSLCGGGGSTTTPAPRPPTPAPTIASQPLSLRPEACRPAAGGAVHTRGLDFACDIYIWAPLAGTCGVLLLSLVITKRGRKKLLYIFKQPFMRPVQTTQEEDGCSCRFPEEEEGGCELRVKFSRSADAPAYQQGQNQLYNELNLGRREEYDVLDKRRGRDPEMGGKPRRKNPQEGLYNELQKDKMAEAYSEIGMKGERRRGKGHDGLYQGLSTATKDTYDALHMQALPPR	–
–	60.7	2G1 RSR (other, member of group m44; also called 2G1-RSR anti-DLL3 CAR with safety switch, on primary T cells) CAR: GGGGSCPYSNPSLCGGGGSQLQLQESGPGLVKPSETLSLTCTVSGGSISSSSYYWGWIRQPPGKGLEWIGSIYYSGNIYHNPSLKSRVSISVDTSKNQFSLRLSSVTAADTAVYYCAREIIVGATHFDYWGQGTLVTVSSGGGGSGGGGSGGGGSGGGGSAIQMTQSPSSLSASVGDRVTITCRASQGIRNDLGWYQQKPGKAPELLIYAASSLQSGVPSRFSGSGSGTDFTLTISSLQPEDFATYYCLQDYNYPLTFGPGTKVDIKGGGGSCPYSNPSLCGGGGSTTTPAPRPPTPAPTIASQPLSLRPEACRPAAGGAVHTRGLDFACDIYIWAPLAGTCGVLLLSLVITKRGRKKLLYIFKQPFMRPVQTTQEEDGCSCRFPEEEEGGCELRVKFSRSADAPAYQQGQNQLYNELNLGRREEYDVLDKRRGRDPEMGGKPRRKNPQEGLYNELQKDKMAEAYSEIGMKGERRRGKGHDGLYQGLSTATKDTYDALHMQALPPR	–
binds	–	anti-DLL3 antibody 4F9 (antibody, V domains shown) VH: QVQLQQWGAGLLKPSETLSLTCAVYGGSFSGYYWTWIRQPPGKGLEWIGEITHSGSTNYNPSLKSRVSISVDTSKNQFSLKLSSVTAADTAVYYCARGEYGSGSRFDYWGQGTLVTVSS VL: AIQMTQSPSSLSASVGDRVAITCRASQGIRDDLGWYQQKPGKAPKLLIYAASSLQSGVPSRFSGSGSDTDFTLTISSLQPEDFATYYCLQDYDYPLTFGGGTKVEIK	–
binds	–	anti-DLL3 antibody 4G9 (antibody, V domains shown) VH: QVQLQQWGAGLLKPSETLSLTCAVYGGSFSGYYWSWIRQPPGKGLEWIGEITHSGSTNYNPSLKSRVSISVDTSKNQFSLKLSSVTAADTAVYYCARGEYGSGSRFDYWGQGTLVTVSS VL: AIQMTQSPSSLSASVGDRVALTCRASQGIRDDLGWYQQKPGKAPKLLIYAASSLQSGVPSRFSGSGSDTDFTLTISSLQPEDFATYYCLQDYDYPLTFGGGTKVEIK	–
–	–	17A2 (other, also called anti-DLL3 CAR with 17A2 scFv, on primary T cells) CAR: QVQLQESGPGLVKPSGTLSLTCVVFGDSISSSNWWSWVRQPPGKGLEWIGEVFHSGSTNYNPSLKSRVTISVDKSKNQFSLKLSSVTAADTAVYYCARAAVAGALDYWGQGTLVTVSSGGGGSGGGGSGGGGSGGGGSDIVMTQSPDSLAVSLGERATINCKSSQSVLYSSNNKNYLAWYQQKPGQPPNLLVYWASTRESGVPDRFSGAGSGTDFTLTISSLQAEDVAVYYCQQYYGTSWTFGQGTKVEIKTTTPAPRPPTPAPTIASQPLSLRPEACRPAAGGAVHTRGLDFACDIYIWAPLAGTCGVLLLSLVITKRGRKKLLYIFKQPFMRPVQTTQEEDGCSCRFPEEEEGGCELRVKFSRSADAPAYQQGQNQLYNELNLGRREEYDVLDKRRGRDPEMGGKPRRKNPQEGLYNELQKDKMAEAYSEIGMKGERRRGKGHDGLYQGLSTATKDTYDALHMQALPPR	Rec-DLL3 gate, percent of live CD3+ cells [3]: 59.1%; Transduction efficiency [4]: 68.6%; Transduction efficiency [5]: 43.3%
binds	–	anti-DLL3 antibody 9H12-K (antibody, V domains shown) VH: QVQLVQSGAEVKKPGASVKVSCKASGYTFTGYSIHWVRQAPGQGLEWMGWINPNSGGTFYAQKFQGRVTMTRDTSISTVYMELSRLRSDDTAVYYCARDGWGDYYYYGLDVWGQGTTVTVSL VL: DIQMTQSPSSVSASVGDRVTITCRASQDISSWLAWYQQKPGKAPKLLIYTASSLQGGVPSRFSGSGSGTDFTLTISSLQPEDLATYSCQQANVFPYTFGQGTKLEIK	–
binds	–	anti-DLL3 antibody 16H7 (antibody, V domains shown) VH: QVQLQQWGAGLLKPSETLSLTCAVFGGSFSGDYWSWIRQPPGKGLEWIGEINHSGITSFNPSLKSRVTISVDTSKNQFSLKLSSVTAADTAVYYCARGELGIPDNWGQGTLVTVSS VL: not shown	–
binds	–	anti-DLL3 antibody 2C3 (antibody, V domains shown) VH: QVQLQQWGGGLLKPSETLSLTCAVYGGSSSGNYWSWIRQPPGKRLEWIGEINHSGTTSYNPSLKSRVTISVDTSKNQFSLKLSSVTAADTAVYYCARGELGIADSWGQGTLVTVSS VL: not shown	–
–	58.6	4H8 R2S (other, member of group m45; also called 4H8-R2S anti-DLL3 CAR with safety switch, on primary T cells) CAR: GGGGSCPYSNPSLCGGGGSCPYSNPSLCGGGGSQVQLQQSGPGLVKPSQTLSLTCAISGDSVSSNSATWNWIRQSPSRGLEWLGRTYYRSKWYDDYAVSVKSRITINPDTSKNHLSLHLNSVTPEDTAVYYCAGGGLVGAPDGFDVWGQGTMVTVSSGGGGSGGGGSGGGGSGGGGSQSVLTQPPSASGTPGQRVTISCSGSSSNIGSDPVNWYQQLPGTAPKLLIYSNNQRPSGVPDRFSGSKSGTSASLAISGLQSEDEADYYCSAWDDSLNGYVFGTGTKVTVLTTTPAPRPPTPAPTIASQPLSLRPEACRPAAGGAVHTRGLDFACDIYIWAPLAGTCGVLLLSLVITKRGRKKLLYIFKQPFMRPVQTTQEEDGCSCRFPEEEEGGCELRVKFSRSADAPAYQQGQNQLYNELNLGRREEYDVLDKRRGRDPEMGGKPRRKNPQEGLYNELQKDKMAEAYSEIGMKGERRRGKGHDGLYQGLSTATKDTYDALHMQALPPR	–
–	66	2G1 R2S (other, member of group m44; also called 2G1-R2S anti-DLL3 CAR with safety switch, on primary T cells) CAR: GGGGSCPYSNPSLCGGGGSCPYSNPSLCGGGGSQLQLQESGPGLVKPSETLSLTCTVSGGSISSSSYYWGWIRQPPGKGLEWIGSIYYSGNIYHNPSLKSRVSISVDTSKNQFSLRLSSVTAADTAVYYCAREIIVGATHFDYWGQGTLVTVSSGGGGSGGGGSGGGGSGGGGSAIQMTQSPSSLSASVGDRVTITCRASQGIRNDLGWYQQKPGKAPELLIYAASSLQSGVPSRFSGSGSGTDFTLTISSLQPEDFATYYCLQDYNYPLTFGPGTKVDIKTTTPAPRPPTPAPTIASQPLSLRPEACRPAAGGAVHTRGLDFACDIYIWAPLAGTCGVLLLSLVITKRGRKKLLYIFKQPFMRPVQTTQEEDGCSCRFPEEEEGGCELRVKFSRSADAPAYQQGQNQLYNELNLGRREEYDVLDKRRGRDPEMGGKPRRKNPQEGLYNELQKDKMAEAYSEIGMKGERRRGKGHDGLYQGLSTATKDTYDALHMQALPPR	–
